Results: publication PMC5073337

Experiments:
[1] = target: SUMO2, full-length mouse, adenovirally overexpressed (mouse) (UniProt P61957); assay: proximity ligation; fixed NRVCM; primary antibodies against SUMO2/3 (Abcam, mouse) and CnA (Upstate, rabbit); cells infected with Ad LacZ, Ad S2 or Ad S2ΔGG with or without Ad ΔCnA; read-out: percentage of PLA-positive nuclei
[2] = target: SUMO2ΔGG, diglycine-deficient mouse SUMO2 mutant, adenovirally overexpressed (mouse) (UniProt P61957); assay: as above

Row | PLA signal (percent) [1] [%] | PLA signal (percent) [2] [%] | increase of PLA signal on overexpression [1] [%] | increase of PLA signal on overexpression [2] [%] | Substance
1 | 64 | 54 |  |  | constitutively active calcineurin A (from UniProt P63328 1-521) (enzyme)
2 |  |  | 14 | 17 | calcineurin A (endogenous, rat) (from UniProt P63329 1-521) (natural protein)
